Experimental data reported in the Human Domainome abundance scans (Beltran et al. 2025).
± gives the uncertainty stated by the source.

B1: Apoptosis-associated speck-like protein containing a CARD, residues 114 to 194; numbered along this chain, Q9ULZ3 (parent)
chain: FIDQHRAALIARVTNVEWLLDALYGKVLTDEQYQAVRAEPTNPSKMRKLFSFTPAWNWTCKDLLLQALRESQSYLVEDLER

Variants of: B1
Assay: abundance fitness (aPCA) (normalised: wild type 0, dead -1); higher = more abundant; growth selection in yeast, the domain comes from the species named
Settings: Homo sapiens

First: FIDQHRAALIARVTNVEWLLDALYGKVLTHEQYQAVRAEPTNPSKMRKLFSFTPAWNWTCKDLLLQALRESQSYLVEDLER [D30H]
Second: FIDQHRAALIARVTNVEWLLDALYGKVLTQEQYQAVRAEPTNPSKMRKLFSFTPAWNWTCKDLLLQALRESQSYLVEDLER [D30Q]
The abundance fitness of the first is higher: 0.094 ± 0.14 for the first, -0.199 ± 0.11 for the second.

Going from FIDQHRAALIARVTNVEWLLDALYGKVLTAEQYQAVRAEPTNPSKMRKLFSFTPAWNWTCKDLLLQALRESQSYLVEDLER [D30A] to FIDQHRAALIARVTNVEWLLDALYGKVLTDEQSQAVRAEPTNPSKMRKLFSFTPAWNWTCKDLLLQALRESQSYLVEDLER [Y33S], the abundance fitness falls from -0.165 ± 0.06 to -0.376 ± 0.053.

FIDQHRAALIARVTNVEWLLDALYGKVLTDEQLQAVRAEPTNPSKMRKLFSFTPAWNWTCKDLLLQALRESQSYLVEDLER [Y33L] and FIDQHRAALIARVTNVEWLLDALYGKVLTDEQIQAVRAEPTNPSKMRKLFSFTPAWNWTCKDLLLQALRESQSYLVEDLER [Y33I] are within error of each other in abundance fitness: -0.204 ± 0.057 for the first, -0.097 ± 0.14 for the second.

First: FIDQHRAALIARVTNVEWLLDALYGKVLTDEQKQAVRAEPTNPSKMRKLFSFTPAWNWTCKDLLLQALRESQSYLVEDLER [Y33K]
Second: FIDQHRAALIARVTNVEWLLDALYGKVLTDEQGQAVRAEPTNPSKMRKLFSFTPAWNWTCKDLLLQALRESQSYLVEDLER [Y33G]
The abundance fitness of the first is higher: -0.342 ± 0.15 for the first, -0.69 ± 0.062 for the second.

Compared with FIDQHRAALIARVTNVEWLLDALYGKVLTDEQQQAVRAEPTNPSKMRKLFSFTPAWNWTCKDLLLQALRESQSYLVEDLER [Y33Q], FIDQHRAALIARVTNVEWLLDALYGKVLTDEQCQAVRAEPTNPSKMRKLFSFTPAWNWTCKDLLLQALRESQSYLVEDLER [Y33C] is higher in abundance fitness: -0.546 ± 0.13 for the first, 0.121 ± 0.06 for the second.

Compared with FIDQHRAALIARVTNVEWLLDALYGKVLTDEQEQAVRAEPTNPSKMRKLFSFTPAWNWTCKDLLLQALRESQSYLVEDLER [Y33E], FIDQHRAALIARVTNVEWLLDALYGKVLTDEQFQAVRAEPTNPSKMRKLFSFTPAWNWTCKDLLLQALRESQSYLVEDLER [Y33F] is higher in abundance fitness: -0.59 ± 0.12 for the first, -0.277 ± 0.11 for the second.

FIDQHRAALIARVTNVEWLLDALYGKVLTDEQAQAVRAEPTNPSKMRKLFSFTPAWNWTCKDLLLQALRESQSYLVEDLER [Y33A] and FIDQHRAALIARVTNVEWLLDALYGKVLTDEQTQAVRAEPTNPSKMRKLFSFTPAWNWTCKDLLLQALRESQSYLVEDLER [Y33T] are within error of each other in abundance fitness: -0.1 ± 0.06 for the first, -0.188 ± 0.086 for the second.

Going from FIDQHRAALIARVTNVEWLLDALYGKVLTDEQMQAVRAEPTNPSKMRKLFSFTPAWNWTCKDLLLQALRESQSYLVEDLER [Y33M] to FIDQHRAALIARVTNVEWLLDALYGKVLTDEQPQAVRAEPTNPSKMRKLFSFTPAWNWTCKDLLLQALRESQSYLVEDLER [Y33P], the abundance fitness falls from -0.189 ± 0.11 to -0.654 ± 0.13.

Going from FIDQHRAALIARVTNVEWLLDALYGKVLTDTQYQAVRAEPTNPSKMRKLFSFTPAWNWTCKDLLLQALRESQSYLVEDLER [E31T] to FIDQHRAALIARVTNVEWLLDALYGKVLTDMQYQAVRAEPTNPSKMRKLFSFTPAWNWTCKDLLLQALRESQSYLVEDLER [E31M], the abundance fitness falls from -0.465 ± 0.096 to -0.693 ± 0.13.

Going from FIDQHRAALIARVTNVEWLLDALYGKVLTDCQYQAVRAEPTNPSKMRKLFSFTPAWNWTCKDLLLQALRESQSYLVEDLER [E31C] to FIDQHRAALIARVTNVEWLLDALYGKVLTDYQYQAVRAEPTNPSKMRKLFSFTPAWNWTCKDLLLQALRESQSYLVEDLER [E31Y], the abundance fitness rises from -0.832 ± 0.21 to -0.477 ± 0.081.

Compared with FIDQHRAALIARVTNVEWLLDALYGKVLTDHQYQAVRAEPTNPSKMRKLFSFTPAWNWTCKDLLLQALRESQSYLVEDLER [E31H], FIDQHRAALIARVTNVEWLLDALYGKVLTDLQYQAVRAEPTNPSKMRKLFSFTPAWNWTCKDLLLQALRESQSYLVEDLER [E31L] is higher in abundance fitness: -0.823 ± 0.22 for the first, -0.461 ± 0.072 for the second.

Compared with FIDQHRAALIARVTNVEWLLDALYGKVLTDGQYQAVRAEPTNPSKMRKLFSFTPAWNWTCKDLLLQALRESQSYLVEDLER [E31G], FIDQHRAALIARVTNVEWLLDALYGKVLTDDQYQAVRAEPTNPSKMRKLFSFTPAWNWTCKDLLLQALRESQSYLVEDLER [E31D] is higher in abundance fitness: -0.469 ± 0.048 for the first, -0.161 ± 0.12 for the second.

First: FIDQHRAALIARVTNVEWLLDALYGKVLTDWQYQAVRAEPTNPSKMRKLFSFTPAWNWTCKDLLLQALRESQSYLVEDLER [E31W]
Second: FIDQHRAALIARVTNVEWLLDALYGKVLTDSQYQAVRAEPTNPSKMRKLFSFTPAWNWTCKDLLLQALRESQSYLVEDLER [E31S]
The abundance fitness of the first is lower: -0.463 ± 0.1 for the first, -0.263 ± 0.053 for the second.

Compared with FIDQHRAALIARVTNVEWLLDALYGKVLTDAQYQAVRAEPTNPSKMRKLFSFTPAWNWTCKDLLLQALRESQSYLVEDLER [E31A], FIDQHRAALIARVTNVEWLLDALYGKVLTDFQYQAVRAEPTNPSKMRKLFSFTPAWNWTCKDLLLQALRESQSYLVEDLER [E31F] is lower in abundance fitness: -0.252 ± 0.054 for the first, -0.82 ± 0.19 for the second.

FIDQHRAALIARVTNVEWLLDALYGKVLTDKQYQAVRAEPTNPSKMRKLFSFTPAWNWTCKDLLLQALRESQSYLVEDLER [E31K] and FIDQHRAALIARVTNVEWLLDALYGKVLTDIQYQAVRAEPTNPSKMRKLFSFTPAWNWTCKDLLLQALRESQSYLVEDLER [E31I] are within error of each other in abundance fitness: -0.65 ± 0.21 for the first, -0.581 ± 0.12 for the second.

FIDQHRAALIARVTNVEWLLDALYGKVLTDQQYQAVRAEPTNPSKMRKLFSFTPAWNWTCKDLLLQALRESQSYLVEDLER [E31Q] and FIDQHRAALIARVTNVEWLLDALYGKVLTDRQYQAVRAEPTNPSKMRKLFSFTPAWNWTCKDLLLQALRESQSYLVEDLER [E31R] are within error of each other in abundance fitness: -0.38 ± 0.12 for the first, -0.238 ± 0.051 for the second.

Compared with FIDQHRAALIARVTNVEWLLDALYGKVLTDPQYQAVRAEPTNPSKMRKLFSFTPAWNWTCKDLLLQALRESQSYLVEDLER [E31P], FIDQHRAALIARVTNVEWLLDALYGKVLTDNQYQAVRAEPTNPSKMRKLFSFTPAWNWTCKDLLLQALRESQSYLVEDLER [E31N] is higher in abundance fitness: -0.735 ± 0.12 for the first, -0.327 ± 0.22 for the second.
